Test results reported in EP2718312B1.

Target: hCXCR1 (human) (UniProt P25024)
Experiment: cell-based or functional assay

hCXCR1 (human), sequence (P25024 whole entry): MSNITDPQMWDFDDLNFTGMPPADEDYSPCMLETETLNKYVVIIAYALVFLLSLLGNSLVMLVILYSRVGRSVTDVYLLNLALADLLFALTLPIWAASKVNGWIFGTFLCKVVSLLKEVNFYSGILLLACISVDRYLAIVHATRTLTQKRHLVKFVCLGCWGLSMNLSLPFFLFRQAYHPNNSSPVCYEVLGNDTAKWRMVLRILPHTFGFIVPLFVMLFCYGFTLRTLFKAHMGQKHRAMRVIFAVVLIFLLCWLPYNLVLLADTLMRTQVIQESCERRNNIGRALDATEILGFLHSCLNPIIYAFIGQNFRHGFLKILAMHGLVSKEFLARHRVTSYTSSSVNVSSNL

EC50, Aequorin assay [nM]	EC50, agonist activity in an Aequorin assay [nM]	Substance
4.2	–	recombinant native IL-8 (from UniProt P10145 28-99)
–	6.1	biotinIL-8 (6-78) (from UniProt P10145 28-99) (ligand)
